The supplement of paper PMC10065799, “High-throughput profiling of sequence recognition by tyrosine kinases and SH2 domains using bacterial peptide display” (eLife, 2023)

How the values were obtained:
c-Src SH2 = test: SH2 binding enrichment of the phosphorylated peptide, bacterial display (enrichment ratio); higher = better substrate or ligand; peptides without Tyr show the background
Grb2 SH2 = Grb2 SH2 (UniProt P62993); test: as above
SHP2-C SH2 = test: as above
Fyn = Fyn (UniProt P06241); test: phosphorylation enrichment, bacterial display (enrichment ratio); higher = better substrate or ligand; peptides without Tyr show the background
Sequence of Fyn (P06241 whole entry, looked up): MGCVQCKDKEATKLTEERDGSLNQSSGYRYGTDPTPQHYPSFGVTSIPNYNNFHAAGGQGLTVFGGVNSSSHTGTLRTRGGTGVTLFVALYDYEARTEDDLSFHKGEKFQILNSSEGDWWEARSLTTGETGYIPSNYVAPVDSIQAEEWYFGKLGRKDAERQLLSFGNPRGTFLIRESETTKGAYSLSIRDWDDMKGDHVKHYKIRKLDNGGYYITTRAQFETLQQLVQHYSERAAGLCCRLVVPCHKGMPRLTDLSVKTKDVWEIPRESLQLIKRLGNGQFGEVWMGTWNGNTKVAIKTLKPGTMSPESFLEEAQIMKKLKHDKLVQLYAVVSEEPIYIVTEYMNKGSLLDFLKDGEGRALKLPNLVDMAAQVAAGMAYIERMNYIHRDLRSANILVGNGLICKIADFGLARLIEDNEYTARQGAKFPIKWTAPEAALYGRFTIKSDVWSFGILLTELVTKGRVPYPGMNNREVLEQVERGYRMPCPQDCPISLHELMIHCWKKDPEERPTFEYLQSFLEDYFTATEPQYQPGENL

MERTK = MERTK (UniProt Q12866); test: as above
Sequence of MERTK (Q12866 whole entry, looked up): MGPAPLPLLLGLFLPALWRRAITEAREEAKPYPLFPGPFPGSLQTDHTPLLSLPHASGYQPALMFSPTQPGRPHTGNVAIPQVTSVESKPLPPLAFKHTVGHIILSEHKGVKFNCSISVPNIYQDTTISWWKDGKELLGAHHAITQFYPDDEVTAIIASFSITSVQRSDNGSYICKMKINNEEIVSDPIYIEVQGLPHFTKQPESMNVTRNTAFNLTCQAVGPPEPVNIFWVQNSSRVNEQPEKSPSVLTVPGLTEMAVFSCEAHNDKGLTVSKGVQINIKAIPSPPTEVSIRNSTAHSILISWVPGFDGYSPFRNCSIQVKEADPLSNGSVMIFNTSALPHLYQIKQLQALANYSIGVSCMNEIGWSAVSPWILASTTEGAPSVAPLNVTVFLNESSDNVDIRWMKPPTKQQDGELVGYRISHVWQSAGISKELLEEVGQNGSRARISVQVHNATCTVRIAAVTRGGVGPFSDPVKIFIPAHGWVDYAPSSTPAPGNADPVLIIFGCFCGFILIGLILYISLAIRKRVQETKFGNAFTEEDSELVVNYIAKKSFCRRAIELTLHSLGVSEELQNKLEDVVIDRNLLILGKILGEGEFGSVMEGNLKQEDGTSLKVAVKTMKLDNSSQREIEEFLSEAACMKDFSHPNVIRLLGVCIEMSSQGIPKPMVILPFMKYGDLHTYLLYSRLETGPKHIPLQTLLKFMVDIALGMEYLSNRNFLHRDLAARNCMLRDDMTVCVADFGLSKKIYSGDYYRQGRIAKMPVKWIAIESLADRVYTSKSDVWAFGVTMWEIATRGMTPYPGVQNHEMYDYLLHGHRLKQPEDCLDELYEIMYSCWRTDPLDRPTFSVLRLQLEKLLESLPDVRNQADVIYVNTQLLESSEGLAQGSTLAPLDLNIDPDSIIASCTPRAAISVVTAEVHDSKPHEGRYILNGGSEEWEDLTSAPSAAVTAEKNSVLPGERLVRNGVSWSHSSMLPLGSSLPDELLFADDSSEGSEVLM

EPHB2 = EPHB2 (UniProt P29323); test: as above
Sequence of EPHB2 (P29323 whole entry, looked up): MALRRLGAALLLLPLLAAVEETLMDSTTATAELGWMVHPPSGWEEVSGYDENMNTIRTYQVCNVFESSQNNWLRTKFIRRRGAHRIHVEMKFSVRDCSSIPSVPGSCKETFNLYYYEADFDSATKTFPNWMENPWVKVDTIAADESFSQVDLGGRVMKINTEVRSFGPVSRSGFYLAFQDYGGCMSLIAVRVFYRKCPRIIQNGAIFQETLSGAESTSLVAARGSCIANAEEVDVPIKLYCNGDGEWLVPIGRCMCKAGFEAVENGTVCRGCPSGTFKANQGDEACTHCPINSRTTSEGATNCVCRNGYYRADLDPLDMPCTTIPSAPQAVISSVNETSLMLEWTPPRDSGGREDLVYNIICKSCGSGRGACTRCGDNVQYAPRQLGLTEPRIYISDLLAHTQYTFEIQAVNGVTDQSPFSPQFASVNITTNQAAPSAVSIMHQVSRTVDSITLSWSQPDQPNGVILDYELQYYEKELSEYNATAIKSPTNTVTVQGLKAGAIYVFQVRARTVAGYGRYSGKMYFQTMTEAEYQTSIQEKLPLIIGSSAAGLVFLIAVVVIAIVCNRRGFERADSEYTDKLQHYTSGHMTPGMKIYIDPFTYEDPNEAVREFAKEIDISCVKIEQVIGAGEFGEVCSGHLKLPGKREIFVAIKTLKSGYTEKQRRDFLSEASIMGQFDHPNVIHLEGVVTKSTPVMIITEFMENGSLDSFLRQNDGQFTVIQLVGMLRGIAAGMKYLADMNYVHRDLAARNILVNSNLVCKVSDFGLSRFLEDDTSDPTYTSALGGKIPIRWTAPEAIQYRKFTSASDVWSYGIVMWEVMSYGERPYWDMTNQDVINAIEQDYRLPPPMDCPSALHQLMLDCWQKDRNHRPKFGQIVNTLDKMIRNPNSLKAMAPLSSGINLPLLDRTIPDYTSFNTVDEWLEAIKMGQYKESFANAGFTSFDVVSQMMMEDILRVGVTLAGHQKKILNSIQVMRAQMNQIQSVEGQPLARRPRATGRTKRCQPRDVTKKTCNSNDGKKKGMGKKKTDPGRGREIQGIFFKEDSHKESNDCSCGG

Hck = Hck (UniProt P08631); test: as above
Sequence of Hck (P08631 whole entry, looked up): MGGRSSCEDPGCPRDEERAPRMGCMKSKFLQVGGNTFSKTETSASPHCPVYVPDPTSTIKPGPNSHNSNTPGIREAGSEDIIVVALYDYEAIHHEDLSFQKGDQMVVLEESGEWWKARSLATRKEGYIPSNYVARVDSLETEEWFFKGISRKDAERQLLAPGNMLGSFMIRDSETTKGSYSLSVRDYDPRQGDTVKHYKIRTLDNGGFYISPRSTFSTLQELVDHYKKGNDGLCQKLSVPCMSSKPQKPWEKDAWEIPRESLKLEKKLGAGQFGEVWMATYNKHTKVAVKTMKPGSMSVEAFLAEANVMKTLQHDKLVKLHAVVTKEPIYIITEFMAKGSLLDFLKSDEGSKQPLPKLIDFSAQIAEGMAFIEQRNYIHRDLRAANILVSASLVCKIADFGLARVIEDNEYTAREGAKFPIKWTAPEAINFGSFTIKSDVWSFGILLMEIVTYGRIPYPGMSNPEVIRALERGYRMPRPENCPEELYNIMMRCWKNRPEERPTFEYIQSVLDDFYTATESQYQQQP

Jak2 = Jak2 (UniProt O60674); test: as above
c-Src = test: as above
c-Abl (mouse) = test: as above
AncSZ = test: as above
Fer (mouse) = test: as above
Fes = Fes (UniProt P07332); test: as above
Sequence of Fes (P07332 whole entry, looked up): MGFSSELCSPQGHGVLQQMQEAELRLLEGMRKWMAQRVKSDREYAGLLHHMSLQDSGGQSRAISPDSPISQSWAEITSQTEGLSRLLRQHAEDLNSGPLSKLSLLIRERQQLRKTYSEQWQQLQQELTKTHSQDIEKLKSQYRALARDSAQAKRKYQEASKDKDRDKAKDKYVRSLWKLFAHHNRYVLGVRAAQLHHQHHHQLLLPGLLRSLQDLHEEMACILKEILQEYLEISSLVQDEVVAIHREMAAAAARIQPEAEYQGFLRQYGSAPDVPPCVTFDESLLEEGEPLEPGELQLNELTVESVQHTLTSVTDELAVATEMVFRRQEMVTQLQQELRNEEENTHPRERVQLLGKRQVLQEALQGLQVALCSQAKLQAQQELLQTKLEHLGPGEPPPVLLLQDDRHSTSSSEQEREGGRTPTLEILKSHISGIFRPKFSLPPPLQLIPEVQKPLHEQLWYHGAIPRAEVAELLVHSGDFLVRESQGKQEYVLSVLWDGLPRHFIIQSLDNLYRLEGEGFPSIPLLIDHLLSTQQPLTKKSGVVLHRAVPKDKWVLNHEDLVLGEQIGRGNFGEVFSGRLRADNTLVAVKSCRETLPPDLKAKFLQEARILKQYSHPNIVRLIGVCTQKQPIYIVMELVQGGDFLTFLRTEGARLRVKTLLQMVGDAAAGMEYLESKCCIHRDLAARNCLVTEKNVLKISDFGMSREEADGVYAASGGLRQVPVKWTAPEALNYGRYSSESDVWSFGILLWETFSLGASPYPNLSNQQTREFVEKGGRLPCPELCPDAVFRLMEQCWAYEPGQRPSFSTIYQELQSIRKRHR

FGFR3 = FGFR3 (UniProt P22607); test: as above
FGFR1 = FGFR1 (UniProt P11362); test: as above
Sequence of FGFR1 (P11362 whole entry, looked up): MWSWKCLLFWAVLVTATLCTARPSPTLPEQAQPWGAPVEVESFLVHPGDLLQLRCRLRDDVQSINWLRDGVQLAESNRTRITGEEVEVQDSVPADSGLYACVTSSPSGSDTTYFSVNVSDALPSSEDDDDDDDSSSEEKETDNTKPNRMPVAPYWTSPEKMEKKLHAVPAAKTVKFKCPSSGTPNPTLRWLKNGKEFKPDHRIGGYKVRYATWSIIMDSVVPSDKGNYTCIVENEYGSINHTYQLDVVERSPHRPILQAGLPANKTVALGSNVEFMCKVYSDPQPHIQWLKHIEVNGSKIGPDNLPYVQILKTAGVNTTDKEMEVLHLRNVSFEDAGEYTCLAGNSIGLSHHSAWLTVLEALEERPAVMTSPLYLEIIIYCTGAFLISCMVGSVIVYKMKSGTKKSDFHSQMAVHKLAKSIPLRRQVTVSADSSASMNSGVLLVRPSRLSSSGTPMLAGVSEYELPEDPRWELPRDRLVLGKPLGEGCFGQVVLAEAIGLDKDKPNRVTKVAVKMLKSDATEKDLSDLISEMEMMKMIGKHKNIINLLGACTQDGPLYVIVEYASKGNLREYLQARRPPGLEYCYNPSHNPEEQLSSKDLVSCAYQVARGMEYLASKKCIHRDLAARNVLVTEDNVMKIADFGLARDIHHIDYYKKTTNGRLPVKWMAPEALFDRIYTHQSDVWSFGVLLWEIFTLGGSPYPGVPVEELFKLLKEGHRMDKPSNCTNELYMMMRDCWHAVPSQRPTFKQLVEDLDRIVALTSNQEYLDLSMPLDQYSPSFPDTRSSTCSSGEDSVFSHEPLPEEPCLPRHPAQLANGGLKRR

EPHB1 = EPHB1 (UniProt P54762); test: as above
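Throughout, for SH2 binding enrichment of the phosphorylated peptide, bacterial display: peptide library displayed on the E. coli surface as eCPX fusions, selected cells deep-sequenced, score is each peptide's frequency after selection divided by its frequency in the input.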
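Throughout, for phosphorylation enrichment, bacterial display: 11-residue human phosphosite peptides and single-mutation variants displayed on the E. coli surface, counted by deep sequencing, each peptide's frequency after selection divided by its frequency in the unselected input library; frequency after pTyr selection over input frequency; kinase dosed for 20-30% of maximal phosphorylation in three min.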

Sequence of Grb2 SH2 (P62993 whole entry, looked up): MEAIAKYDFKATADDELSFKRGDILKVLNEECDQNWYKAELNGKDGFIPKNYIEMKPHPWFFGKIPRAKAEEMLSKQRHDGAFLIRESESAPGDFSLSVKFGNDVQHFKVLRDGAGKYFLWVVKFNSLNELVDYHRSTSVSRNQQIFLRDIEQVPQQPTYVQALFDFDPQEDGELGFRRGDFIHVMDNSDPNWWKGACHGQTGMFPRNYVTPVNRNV

Sequence	SH2 binding enrichment (c-Src SH2)	SH2 binding enrichment (Grb2 SH2)	SH2 binding enrichment (SHP2-C SH2)	phosphorylation enrichment (Fyn)	phosphorylation enrichment (MERTK)	phosphorylation enrichment (EPHB2)	phosphorylation enrichment (Hck)	phosphorylation enrichment (Jak2)	phosphorylation enrichment (c-Src)	phosphorylation enrichment (c-Abl (mouse))	phosphorylation enrichment (AncSZ)	phosphorylation enrichment (Fer (mouse))	phosphorylation enrichment (Fes)	phosphorylation enrichment (FGFR3)	phosphorylation enrichment (FGFR1)	phosphorylation enrichment (EPHB1)
VKANTYENFWP [GATM_Y100_K102N_YF]	2.84	12.5	1.58	3.61	3.58	2.03	2.1	0.954	4.08	0.904	0.926	2.02	1.04	0.661	0.415	3.6
HSYNSYTYPRL [PAK5_Y316]	9.16	1.04	1.12	0.449	1.78	0.508	0.485	0.716	0.652	0.553	0.776	0.554	0.682	0.532	0.658	0.472
LGSVVYAHSKE [KCNQ2_Y226]	0.467	0.809	0.754	0.407	0.424	0.437	0.403	0.559	0.413	0.449	0.527	0.416	0.596	0.419	0.445	0.473
PTYKHYANSTQ [SLC12A3_Y70_E68K]	0.56	0.702	0.768	0.542	0.442	0.418	0.434	0.593	0.422	0.44	0.39	0.448	0.592	0.466	0.529	0.391
DEENFYQGSME [ASCC1_Y36_D34N]	0.556	0.891	0.701	0.498	0.517	0.604	0.7	1.05	0.733	0.821	1.3	0.624	1.36	0.647	0.465	0.588
KYLENYLNCLL [PLD2_Y169_R172C]	0.747	0.983	0.835	0.476	0.52	0.776	0.456	1.28	0.498	1.03	1.1	0.707	1.47	1.05	0.989	1.18
KALKQYRASPS [DDX27_Y763_G766S]	0.537	0.801	0.691	0.373	0.401	0.344	0.318	0.439	0.43	0.552	0.411	0.368	0.423	0.309	0.328	0.312
MPLTKYLKRIK [CNGB3_Y200_E199K]	0.834	1.27	1.03	0.377	0.431	0.377	0.534	0.477	0.391	0.498	0.641	0.425	0.623	0.488	0.472	0.425
KVKSIYFHTQG [AR_Y916_P914S]	0.568	0.641	0.793	0.51	0.379	0.449	0.414	0.614	0.436	0.563	0.69	0.367	0.718	0.544	0.414	0.542
QRTMKYTTATG [MCCC1_Y41]	0.473	0.85	0.432	0.475	0.524	0.7	0.551	0.449	0.411	0.727	0.602	0.722	0.669	0.518	0.692	0.314
CQLENYCNGGG [INS_Y108_Y103C]	1.17	1.29	0.888	0.54	0.503	0.696	0.57	0.837	0.494	0.621	0.925	0.49	0.89	0.664	0.573	0.681
AKRKGYDMRVD [NEB_Y2770]	0.464	0.755	0.728	0.47	0.394	0.339	0.355	0.431	0.363	0.42	0.459	0.358	0.477	0.297	0.292	0.295
ITVPAYFNDSQ [HSPA9_Y196]	0.498	1.08	0.878	0.553	0.456	0.491	0.528	1.02	0.536	0.785	0.895	0.54	1.06	0.672	0.581	0.473
PLKFLYPNIDR [STAT1_Y668_K673R_YF]	0.818	0.969	0.8	0.796	0.519	0.664	0.6	1.06	0.55	0.891	1.31	0.602	1.24	0.953	0.443	0.941
YTGDIYSSSNL [LZTR1_Y141_N143S]	0.592	1.03	0.697	6.08	3.2	1.53	7.13	0.504	4.97	1.97	0.917	2.91	0.74	0.626	0.613	1.27
EESREYDRLFE [PIK3R1_Y463_K459E_YF]	6.69	0.829	0.473	0.493	0.546	0.681	0.657	1.48	0.654	1.07	1.46	0.599	1.49	0.762	0.609	0.489
LAVGDYMRRQK [ATM_Y1915_V1913G]	0.37	0.597	0.695	0.545	0.476	0.41	0.504	0.691	0.503	0.555	0.696	0.504	0.734	0.411	0.437	0.441
